Data taken from PMC5779228.

Target: His-tagged dimeric ϕO11 Dut (S. aureus phage ϕO11)
Test: crystal structure; ϕO11 Dut (10 mg/ml) with 0.5 mM dUPNPP and 5 mM MgCl2; sitting drop at 21°C; 0.2 M magnesium chloride, 0.1 M Tris-HCl pH 8.5, 20% PEG 8000; 2.1 Å

Question: With His-tagged dimeric ϕO11 Dut (enzyme) as the substance, how does the stoichiometry N read?
Answer: 2
